B1: Protein kinase doc (Escherichia phage P1), Q06259 (parent)
chain: MRHISPEELIALHDANISRYGGLPGMSDPGRAEAIIGRVQARVAYEEITDLFEVSATYLVATARGHIFNDANKRTALNSALLFLRRNGVQVFDSPELADLTVGAATGEISVSSVADTLRRLYGSAE

Variants of: B1
Conditions: with eftu1_ecoli tufA

Q: With R64G as the variant, how does the “effect of a mutation on the interaction” value read?
A: disrupting interaction strength

Reference: IntAct's records for PubMed 24141193
